Measurements taken from PMC3553987 (Nucleic Acids Research, 2012).

Experiments:
[1] = system: GAS cognate DNA; experiment: EMSA with P32-labeled cognate DNA; type: binding; conditions: data not shown
[2] = system: GAS consensus site DNA (TTCnnnGAA); experiment: TIRF-PBM binding of STAT1 proteins to DNA

Molecule	fold decrease in binding affinity vs P-STAT1 [1]	fold impact on affinity compared to P-STAT1 binding ([2]; optimal GAS site DNA)	average fold impact on binding compared to P-STAT1 at preferred binding sites ([2]; reduced binding)
U-STAT1: unphosphorylated STAT1 (protein, UniProt P42224 2-750, looked up, unphosphorylated) Signal transducer and …: SQWYELQQLDSKFLEQVHQLYDDSFPMEIRQYLAQWLEKQDWEHAANDVSFATIRFHDLLSQLDDQYSRFSLENNFLLQHNIRKSKRNLQDNFQEDPIQMSMIIYSCLKEERKILENAQRFNQAQSGNIQSTVMLDKQKELDSKVRNVKDKVMCIEHEIKSLEDLQDEYDFKCKTLQNREHETNGVAKSDQKQEQLLLKKMYLMLDNKRKEVVHKIIELLNVTELTQNALINDELVEWKRRQQSACIGGPPNACLDQLQNWFTIVAESLQQVRQQLKKLEELEQKYTYEHDPITKNKQVLWDRTFSLFQQLIQSSFVVERQPCMPTHPQRPLVLKTGVQFTVKLRLLVKLQELNYNLKVKVLFDKDVNERNTVKGFRKFNILGTHTKVMNMEESTNGSLAAEFRHLQLKEQKNAGTRTNEGPLIVTEELHSLSFETQLCQPGLVIDLETTSLPVVVISNVSQLPSGWASILWYNMLVAEPRNLSFFLTPPCARWAQLSEVLSWQFSSVTKRGLNVDQLNMLGEKLLGPNASPDGLIPWTRFCKENINDKNFPFWLWIESILELIKKHLLPLWNDGCIMGFISKERERALLKDQQPGTFLLRFSESSREGAITFTWVERSQNGGEPDFHAVEPYTKKELSAVTFPDIIRNYKVMAAENIPENPLKYLYPNIDKDHAFGKYYSRPKEAPEPMELDGPKGTGYIKTELISVSEVHPSRLQTTDNLLPMSPEEFDEVSRIVGSVEFDSMMNTV	> 200 fold	> 100 fold	–
P-STAT1tc: Phosphorylated truncated STAT1 lacking N-terminal domain and short C-terminal activation domain (amino acids 132-712) (protein, UniProt P42224 132-712, looked up, fragment, phosphorylated) STVMLDKQKELDSKVRNVKDKVMCIEHEIKSLEDLQDEYDFKCKTLQNREHETNGVAKSDQKQEQLLLKKMYLMLDNKRKEVVHKIIELLNVTELTQNALINDELVEWKRRQQSACIGGPPNACLDQLQNWFTIVAESLQQVRQQLKKLEELEQKYTYEHDPITKNKQVLWDRTFSLFQQLIQSSFVVERQPCMPTHPQRPLVLKTGVQFTVKLRLLVKLQELNYNLKVKVLFDKDVNERNTVKGFRKFNILGTHTKVMNMEESTNGSLAAEFRHLQLKEQKNAGTRTNEGPLIVTEELHSLSFETQLCQPGLVIDLETTSLPVVVISNVSQLPSGWASILWYNMLVAEPRNLSFFLTPPCARWAQLSEVLSWQFSSVTKRGLNVDQLNMLGEKLLGPNASPDGLIPWTRFCKENINDKNFPFWLWIESILELIKKHLLPLWNDGCIMGFISKERERALLKDQQPGTFLLRFSESSREGAITFTWVERSQNGGEPDFHAVEPYTKKELSAVTFPDIIRNYKVMAAENIPENPLKYLYPNIDKDHAFGKYYSRPKEAPEPMELDGPKGTGYIKTELISVSEV	–	–	2.6 fold
